# Experimental data: paper PMC2780292, “Structural Requirements for PACSIN/Syndapin Operation during Zebrafish Embryonic Notochord Development” (PLoS ONE, 2009)
# Target: the molecule itself
# Assay: crystal structure; selenomethionine SAD, 2.7 Å; crystals from 17% PEG 3350, 0.1 M disodium phosphate, hanging drop; two molecules in the asymmetric unit
protein,measurement,value
"Drosophila Syndapin N-terminal EFC domain (domain or fragment, Drosophila melanogaster, selenomethionine-substituted, the model holds residues 14-303 (chain A, 169-188 missing) and 14-298 (chain B); The fragment arose from full-length Syndapin during crystallization; Antiparallel homodimer; also called Syndapin EFC domain; Syndapin EFC dimer; source: crystals contained only the EFC domain) SDSFWEPGNYKRTTKRIEDGYKLCNDLQQLIQERADIEKGYAKSLRTWSKKWGELIEKGPEYGTTEAAWKGVLTESERISDVHMKIKDNLCNDVNSQIKTWQKENYHHTLMQIKERKDLEDLFKKAQKPWAKLLAKVEKAKADYHSACKTERSATNQERNANADSSLSPDQVKKMHDRVQKTKDQVQKCREKYEQAIAEITKYNSVYIEDMTSVFEKCQTFEKTRLQFFKEILFNVHSCLDLTKVQSLPQIYEEFSHTINNADQQKDLKWWSNNHGINMAMNWPSFVEYT",stoichiometry N,2
